“Also recorded” adds a separate entry of the source.
Columns and labels:
[1] = test system: Mice dendritic cells; experiment: DCs maturation and differentiation, activation markers by FACS; format: cell-based
Description: FIG. 1. Effect of the anti-CMKLR1 variants 1G1, 2G1, 3G1 and 4G1 chimeric antibodies on the DCs maturation and differentiation. Mice dendritic cells were incubated during maturation phase (24 h or 48 h) followed by a differentiation phase with excipient or RvE1 or anti-CMKLR1 antibodies variants (mutations on positions 1 and 2 of SEQ ID No. 8, corresponding to the VH-CDR3: 1G1 (LL), 2G1 (LI), 3G1 (IL) or 4G1 (II) or isotype controls (hIgG1 or mIgG)). Cells were then stained for FACS analysis with cell marker antibodies: A. CD80-PE; B. CD86-FITC; C. CD103-PerCPCy5.5; D. I/Ab-APC. Mean of Fluorescence was determined in each condition. E and F represent the viability of the cells measured by FACS using LIVE/DEAD® kit from Life Technologies in each condition after 24 or 48 hours of maturation respectively.
FIG. 16. Study of the myeloid cell activation markers after CMKLR1 pathway activation. Dendritic cells incubated in excipient, RvE1, 2G1 or isotype control (hIgG1) were then stained for FACS analysis with marker antibodies: A. CD80-PE. B. CD86-FITC. C. CD103-PerCPCy5.5. D. CD40-PeCy7. E. I/Ab-APC. Mean of Fluorescence was determined in each condition.
Bone marrow cells were harvested and cultured in RPMI medium supplemented with 10% FBS, glutamine and antibiotics and the dendritic cell differentiation was induced by GM-CSF at 20 ng/ml for 7 days. Then, immature dendritic cells (iDC) were collected and cultured for 24 hours with LPS (100 ng/ml) to induce the maturation from iDC to mDC. Treatments were added during differentiation and maturation at 2 μg/ml.
Dendritic cells were resuspended in PBS-FBS-EDTA and incubated with live and dead (LIVE/DEAD® Fixable Dead Cell Stains Yellow-Life Technologies) for 30 minutes on ice. Staining of CD11c-BV711, CD11b-APCCy7, I/Ab-APC, CD103-PerCPCy5.5, CCR7-V450, CD40-PeCy7, CD80-PE, CD86-FITC (all provided by BD Pharmingen) were performed.

[2] = test system: spontaneous colitis in IL-10KO mice; experiment: IL10 KO spontaneous chronic inflammatory colitis model; format: in vivo; conditions: vs isotype control
Description: FIG. 4. Effect of an anti-CMKLR1 antibody on a IL10 KO mice chronic inflammatory colitis model. Mice KO for IL10 develop a spontaneous inflammatory colitis. They were treated with an Anti-CMKLR1 antibody (2G1) (□) or isotype control (hIgG1) (x) intra-peritoneally (25 μg/injection, 3 times a week). A. Animal weight loss during and after treatment. B. Animal score stool.
IL-10KO mice develop a spontaneous colitis from 20 weeks of age mostly due to the absence of regulatory T cells function through IL-10 secretion in the intestine. IL-10KO mice were followed-up three times a week from 18-week old for their weight loss and stool consistency which are clinical hallmarks of this pathology.

[3] = test system: PMN from healthy volunteers; experiment: Percentage of dead PMN (mortality of neutrophils) on coated antibodies; format: cell-based, human; conditions: coated Ab at 10 μg/mL, 24 h; FIG. 26, FIG. 36
Description: […] Mortality of PMN was analyzed by incubating PMN with specific markers of the mortality and viability and then counted by picture analysis.
(§1) FIG. 36—Increase of dead PMN neutrophils in vitro with anti-ChemR23 antibodies coated. PMN from healthy volunteers were incubated in culture medium with coated HEF-LDT52S, HEF-LEF and HDLD antibody variants at 10 μg/mL for 24 h and stained either with a dead/viability kit (LIVE/DEAD (Invitrogen)). The percentages of positive cells were obtained by analyzing the pictures with Fiji software. Isotype control was added as control.
(§2) PMN from healthy volunteers were incubated in culture medium with coated Ab at 10 μg/mL for 24 h or 5 h and stained either with a dead/viability kit (LIVE/DEAD (Invitrogen)) or a specific marker of reactive oxygen species (ROS) respectively. The percentages of positive cells were obtained by analyzing the pictures with ImageJ software.
as §1, with “PMN” for “FIG. 36—Increase of dead PMN neutrophils in vitro with anti-ChemR23 antibodies coated. PMN”

[4] = test system: ROS production by PMN from healthy volunteers; experiment: ROS test in PMN; format: cell-based, human; conditions: coated Ab at 10 μg/mL, after 5 h; FIG. 26C
Description: Neutrophils were isolated from blood of healthy volunteers and cultured for 24 h (Mortality analysis), or 4 h, 6 h, 11 h (Caspase-3 assay), or 5 h (ROS assay) on coated Iso ctrl (cross), chimeric anti-ChemR23 2G1 (square) or different humanized versions of the 2G1 (diamonds). Mortality of PMN was analyzed by incubating PMN with specific markers of the mortality and viability and then counted by picture analysis.
as §2

B1: 2G1: parental chimeric anti-CMKLR1 antibody: heavy chain variable domain SEQ ID No. 37, light chain variable domain SEQ ID No. 49 (antibody, V domains shown)
VH: EVQLVASGGGLVQPGGSLKLSCAASGFTFSSYGMSWVRQTPDRRLELVATINRYGGSTYYPDSVKGRFTISRDNAKNTLYLQMSSLKSEDTAMYYCPRLIYYGNEGDSWGQGTTLTVSS
VL: QIVLTQSPAIMSASPGEKVTMTCSASSSVSFMHWYQQKSGTSPKRWIYDTTKLTSGVPARFSGSGSGTFYSLTISSMEAEDAATYYCQQWNSKPPLTFGPGTKLELKR
viability of cells ([1]; LIVE/DEAD kit, after 24 or 48 hours of maturation, FIGS. 1E and 1F): enhanced | expression of CD80, CD86, CD103, CD40 and IAb ([1]; compared to the excipient or isotype control, FIG. 16): strong decrease | DCs activation and/or maturation (DCs expressing CD103 and IAb) ([1]; maturation 24 h or 48 h, FIG. 1): inhibit DCs activation and/or maturation in a stronger manner than other synthetized antibodies | percentage of weight loss ([2]; 25 μg/injection i.p., 3 times a week for 2 weeks, FIG. 4A): lost less weight | score stool ([2]; FIG. 4B): better score stool | mortality of PMN (percentage of dead PMN) [3]: increase the mortality of PMN; also recorded: accelerate the death of PMN | ROS production by PMN [4]: increase the ROS production

From patent publication US12534533B2, “Anti-chemokine like receptor 1 humanized antibodies and their therapeutic applications” (OSE IMMUNOTHERAPEUTICS, priority 2019, dated 2026)
